According to patent US20180155451A1 (published 2018):
Residue numbers refer to the chain shown, from its start. Like-named read-outs stand apart in the source and are kept apart here.

Tests used:
Assay in all cases: SPR (Biacore), antibody captured on chip, FcgR extracellular domain as analyte
[1] = target: T1, FcgRIa (human, UniProt P12314 16-292)
T1 construct: extracellular domain; Expressed in FreeStyle293 cells and purified; used as analyte in Biacore; also called FcγRIa; FcγRI; not shown: His tag attached to the C terminus

[2] = target: T2, FcgRIIa R (human, UniProt P12318 34-217)
T2 construct: extracellular domain; also called FcγRIIa R; FcγRIIa type R; not shown: His tag attached to the C terminus
T2 sequence (looked up): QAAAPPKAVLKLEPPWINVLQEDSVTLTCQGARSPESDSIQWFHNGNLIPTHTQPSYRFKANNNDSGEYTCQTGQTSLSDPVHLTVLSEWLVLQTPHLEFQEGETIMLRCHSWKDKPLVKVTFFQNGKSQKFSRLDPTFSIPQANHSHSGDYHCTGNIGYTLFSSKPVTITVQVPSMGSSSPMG

[3] = target: T3, FcgRIIa H (human, UniProt P12318 34-217)
T3 construct: extracellular domain; also called FcγRIIa H; FcγRIIa type H; not shown: His tag attached to the C terminus
T3 sequence (looked up): T2 sequence (looked up) with R134H

[4] = target: T4, FcgRIIb (human, UniProt P31994 43-217)
T4 construct: extracellular domain; Expressed in FreeStyle293 cells and purified; used as analyte in Biacore; also called FcγRIIb; CD32B; not shown: His tag attached to the C terminus
T4 sequence (looked up): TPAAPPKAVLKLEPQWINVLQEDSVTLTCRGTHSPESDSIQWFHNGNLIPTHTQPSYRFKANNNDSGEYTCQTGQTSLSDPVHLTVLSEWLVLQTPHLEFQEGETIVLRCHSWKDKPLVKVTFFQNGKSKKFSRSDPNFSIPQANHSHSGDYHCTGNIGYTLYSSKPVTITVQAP

[5] = target: T5, FcgRIIIa F (human, UniProt P08637 17-208)
T5 construct: extracellular domain; also called FcγRIIIa F; not shown: His tag attached to the C terminus

[6] = target: T6, FcgRIIIa V (human, UniProt P08637 17-208)
T6 construct: extracellular domain; also called FcγRIIIa V; not shown: His tag attached to the C terminus

[7] = target: T1, FcgRIa; remark: listed apart in the source
[8] = target: T2, FcgRIIa R; remark: listed apart in the source
[9] = target: T4, FcgRIIb; remark: listed apart in the source
[10] = target: T5, FcgRIIIa F; remark: listed apart in the source
[11] = target: T6, FcgRIIIa V; remark: listed apart in the source
[12] = target: T1, FcgRIa; remark: listed apart in the source
Description: (§1) Analysis of interaction between obj ective antibody and the FcγR was carried out using Biacore T100 (GE Healthcare), Biacore T200, Biacore A100, and Biacore 4000. HBS-EP+ (GE Healthcare) was used as the running buffer, and the measurement temperature was set to 25° C. Chips produced by immobilizing the antigen peptide by the amine coupling method to a Series S sensor Chip CM5 (GE Healthcare), chips produced by allowing preliminarily biotinylated antigen peptides to interact with and immobilize onto a Series S Sensor Chip SA (certified) (GE Healthcare), chips produced by immobilizing Protein L (ACTIGEN, BioVision) to Series S Sencor Chip CM5 (GE Healthcare), or chips produced by immobilizing Protein A/G (Thermo Scientific) to Series S Sencor Chip CM5 (GE Healthcare) were used. Antibodies of interest were captured onto these chips, and allowed to interact to each FcγR diluted with running buffer. To regenerate and repeatedly use the chip, the antibodies captured onto the chip were washed off by reacting 10 mM glycine-HCl, pH 1.5.

[13] = target: T2, FcgRIIa R; remark: listed apart in the source
Description: as §1

[14] = target: T3, FcgRIIa H; remark: listed apart in the source
Description: as §1

[15] = target: T4, FcgRIIb; remark: listed apart in the source
Description: as §1

[16] = target: T5, FcgRIIIa F; remark: listed apart in the source
Description: as §1

[17] = target: T6, FcgRIIIa V; remark: listed apart in the source
Description: as §1

T1 sequence (P12314 16-292): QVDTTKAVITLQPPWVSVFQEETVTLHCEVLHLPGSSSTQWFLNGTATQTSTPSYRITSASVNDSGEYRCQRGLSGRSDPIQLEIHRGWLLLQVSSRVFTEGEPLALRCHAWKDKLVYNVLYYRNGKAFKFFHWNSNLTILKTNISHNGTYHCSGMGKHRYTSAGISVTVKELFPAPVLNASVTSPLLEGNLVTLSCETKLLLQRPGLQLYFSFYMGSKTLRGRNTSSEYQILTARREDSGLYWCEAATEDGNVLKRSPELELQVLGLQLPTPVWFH
T6 sequence (P08637 17-208 F176V limits assumed): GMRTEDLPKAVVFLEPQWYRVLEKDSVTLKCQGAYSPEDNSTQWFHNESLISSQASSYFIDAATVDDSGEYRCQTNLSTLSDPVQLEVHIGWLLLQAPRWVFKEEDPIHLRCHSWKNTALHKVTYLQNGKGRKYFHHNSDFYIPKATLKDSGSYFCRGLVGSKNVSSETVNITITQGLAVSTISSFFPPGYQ
T5 sequence (P08637 17-208): as the sequence (P08637 17-208 F176V limits assumed) above, with V160F counted along it

Kd [1]: 0.43 nM
Kd [2]: 490 nM
Kd [3]: 780 nM
Kd [4]: 2600 nM
Kd [5]: 79 nM
Kd [6]: 6.9 nM
Kd [7]: 0.43 nM
Kd [8]: 490 nM
Kd [9]: 2600 nM
Kd [10]: 79 nM
Kd [11]: 6.9 nM
Kd [12]: 0.43 nM
Kd [13]: 490 nM
Kd [14]: 780 nM
Kd [15]: 2600 nM
Kd [16]: 79 nM
Kd [17]: 6.9 nM
B1: H240-afucosyl_G1d/L73-k0 (antibody, human IgG1, kappa)
heavy: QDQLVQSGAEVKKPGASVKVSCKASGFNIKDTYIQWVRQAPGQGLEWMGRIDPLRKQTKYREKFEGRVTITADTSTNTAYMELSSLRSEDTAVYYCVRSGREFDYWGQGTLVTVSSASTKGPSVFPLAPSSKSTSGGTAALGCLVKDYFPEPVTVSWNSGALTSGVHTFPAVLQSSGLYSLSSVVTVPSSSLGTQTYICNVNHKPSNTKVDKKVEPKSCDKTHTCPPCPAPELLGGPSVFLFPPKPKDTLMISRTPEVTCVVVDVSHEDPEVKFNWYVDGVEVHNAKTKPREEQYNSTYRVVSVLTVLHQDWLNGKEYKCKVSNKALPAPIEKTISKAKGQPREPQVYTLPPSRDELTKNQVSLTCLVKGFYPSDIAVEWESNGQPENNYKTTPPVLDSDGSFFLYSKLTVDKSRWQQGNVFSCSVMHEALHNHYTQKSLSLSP
light: DIQMTQSPSSLSASVGDRVTITCRASQDIHKYIAWYQQKPGQAPRLLIQYTSTLQPGVPSRFSGSGSGTDYTFTISSLQPEDIATYYCLQYEQLRTFGGGTKVEIKRTVAAPSVFIFPPSDEQLKSGTASVVCLLNNFYPREAKVQWKVDNALQSGNSQESVTEQDSKDSTYSLSSTLTLSKADYEKHKVYACEVTHQGLSSPVTKSFNRGEC
modifications: fucose removed from the sugar chain (afucosylated); amino acid sequence same as H240-G1d
notes: Anti-EREG IgG1 obtained by afucosylating H240-G1d/L73-k0; also called afucosylated antibody
